Measured values taken from PMC9061257.

Target: pseudouridine kinase from Escherichia coli strain B (EcPUKI), wildtype (E. coli strain B) (UniProt P30235)
Assay: SEC

stoichiometry N: 2
Substance: pseudouridine kinase from Escherichia coli strain B (EcPUKI), wildtype (from UniProt P30235 1-313) (enzyme)
